Laboratory results published in PMC5928161.

Molecular target: FLAG-tagged a3 isoform of the V-ATPase a subunit (mouse) (UniProt Q9JHF5)
Assay: co-immunoprecipitation (anti-FLAG IP, anti-V5 Western blot)
Details: HEK293T cells; intensity of V5-fused GTP-binding protein co-precipitated with a3 normalised to that of V5-Rab7

UniProt Q9JHF5, sequence (Q9JHF5 entry or part of it): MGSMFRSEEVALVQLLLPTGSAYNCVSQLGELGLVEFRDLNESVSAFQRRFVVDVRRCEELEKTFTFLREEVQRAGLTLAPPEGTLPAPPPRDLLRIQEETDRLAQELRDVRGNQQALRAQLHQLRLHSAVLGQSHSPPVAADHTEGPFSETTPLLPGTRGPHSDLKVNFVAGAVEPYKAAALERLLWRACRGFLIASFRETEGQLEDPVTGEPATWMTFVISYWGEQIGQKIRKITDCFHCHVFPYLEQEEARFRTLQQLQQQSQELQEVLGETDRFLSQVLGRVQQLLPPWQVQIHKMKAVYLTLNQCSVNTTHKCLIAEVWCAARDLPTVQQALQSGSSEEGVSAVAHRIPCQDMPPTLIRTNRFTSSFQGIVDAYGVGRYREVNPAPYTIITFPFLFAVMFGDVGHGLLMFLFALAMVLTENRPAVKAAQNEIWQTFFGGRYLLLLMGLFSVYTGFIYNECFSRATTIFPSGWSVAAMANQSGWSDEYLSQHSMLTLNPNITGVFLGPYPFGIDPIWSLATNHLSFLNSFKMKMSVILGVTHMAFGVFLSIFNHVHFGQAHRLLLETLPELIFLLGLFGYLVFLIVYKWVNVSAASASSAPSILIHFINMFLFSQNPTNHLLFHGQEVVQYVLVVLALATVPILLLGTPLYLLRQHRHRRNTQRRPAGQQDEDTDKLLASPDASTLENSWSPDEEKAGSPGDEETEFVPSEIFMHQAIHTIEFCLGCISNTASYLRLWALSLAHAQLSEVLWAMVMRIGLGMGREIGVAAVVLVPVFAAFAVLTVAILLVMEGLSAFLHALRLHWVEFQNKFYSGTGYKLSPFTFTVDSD

Substance | other: relative signal intensity
Ran W C (substitution not printed) | < 0.1
H-Ras W D (substitution not printed) | < 0.1
H-Ras W C (substitution not printed) | < 0.1
Ran W D (substitution not printed) | < 0.1
